The assay has as its target T1, polyubiquitin chains, endogenous in HEK293 cells (human (endogenous in HEK293), UniProt P0CG48 1-76).
T1 construct: ubiquitin (76 amino acids), cut product of the polyubiquitin precursor, joined into endogenous polyubiquitin chains; Precipitated or detected with a polyclonal ubiquitin antibody; seen as smeared bands; source: endogenous, HEK293 lysate
Briefly: co-IP; lysates of HEK293 cells transfected with FLAG-GCH1 or mutants for 2 days, immunoprecipitated with the ubiquitin antibody and protein A/G beads; blot with FLAG antibody; empty vector as control. The note with it: partners not purified.

B1: FLAG-GTPCH1 I131L (natural protein, human, UniProt P30793 1-250, looked up)
chain: MEKGPVRAPAEKPRGARCSNGFPERDPPRPGPSRPAEKPPRPEAKSAQPADGWKGERPRSEEDNELNLPNLAAAYSSILSSLGENPQRQGLLKTPWRAASAMQFFTKGYQETISDVLNDAIFDEDHDEMVLVKDIDMFSMCEHHLVPFVGKVHIGYLPNKQVLGLSKLARIVEIYSRRLQVQERLTKQIAVAITEALRPAGVGVVVEATHMCMVMRGVQKMNSKTVTSTMLGVFREDPKTREEFLTLIRS
notes: GTP cyclohydrolase 1 (GTPCH1), human, full-length GCH1 cDNA with the point mutation I131L; also called FLAG-GCH1 I131L; source: HEK293, transfected (pCI-neo), in lysate; not shown: FLAG, C-terminal, kept
For the molecule B1, the “fold change of ubiquitin binding against wild-type FLAG-GTPCH1” value was around 4.5 fold.

For the origin of these results see publication PMC3440371, “Non-Covalent Interaction between Polyubiquitin and GTP Cyclohydrolase 1 Dictates Its Degradation” (PLoS ONE, 2012).
